ChEMBL document CHEMBL1156423

System: O=C(O)P(=O)(O)O
Conditions: Human immunodeficiency virus 1
Description: Inhibition of HIV1 reverse transcriptase E89K mutant mediated single strand incorporation into DNA at +16 position using polypurine tract PPT+16/PPT57 template after 7 mins by gel based assay

## Human immunodeficiency virus type 1 reverse transcriptase (Human immunodeficiency virus 1) (from UniProt Q72547) E89K
  kcat/Km: 6000 M⁻¹ s⁻¹
